Laboratory results taken from patent US20150037339A1 (Regeneron, published 2015).
Each block holds one binder with its values, some of them ahead of it.

Legend:
[1] = biological target: T1, Activin A (homodimer of two inhibin βA subunits; R&D Systems, #338-AC) (human, UniProt P08476 311-426); assay: SPR blocking: 5 nM Activin A + 15 nM binder over hActRIIB-hFc (Control 4) surface
T1 construct: Bought protein; also called inhibin-βA dimer
T1 sequence: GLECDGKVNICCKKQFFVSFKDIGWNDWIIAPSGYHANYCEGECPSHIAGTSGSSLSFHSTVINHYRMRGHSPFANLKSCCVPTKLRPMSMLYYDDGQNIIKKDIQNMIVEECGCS

[2] = biological target: T1, Activin A (homodimer of two inhibin βA …); assay: SPR blocking: 5 nM Activin A + 0.94 nM binder over hActRIIB-hFc (Control 4) surface
[3] = biological target: T1, Activin A (homodimer of two inhibin βA …); assay: SPR blocking: 5 nM Activin A + 7.5 nM binder over Follistatin-288 surface
Procedure: (§1) The binding signal (RU) was measured at 150 seconds after the start of the injection, and this signal was subtracted by the measured RU value for a negative control reference surface to determine the specific binding signal.

[4] = biological target: T1, Activin A (homodimer of two inhibin βA …); assay: SPR blocking: 5 nM Activin A + 60 nM binder over hActRIIA-hFc surface
Procedure: as §1

[5] = biological target: T1, Activin A (homodimer of two inhibin βA …); assay: SPR blocking: 5 nM Activin A + 60 nM binder over Follistatin-288 surface
Procedure: as §1

[6] = biological target: T1, Activin A (homodimer of two inhibin βA …); assay: SPR blocking: 5 nM Activin A + 3.75 nM binder over hActRIIB-hFc (Control 4) surface
Procedure: as §1

[7] = biological target: T1, Activin A (homodimer of two inhibin βA …); assay: SPR blocking: 5 nM Activin A + 0 nM binder over Follistatin-288 surface
Procedure: as §1

[8] = biological target: T1, Activin A (homodimer of two inhibin βA …); assay: SPR blocking: 5 nM Activin A + 1.88 nM binder over Follistatin-288 surface
Procedure: as §1

[9] = biological target: T1, Activin A (homodimer of two inhibin βA …); assay: SPR blocking: 5 nM Activin A + 0.00 nM binder over hActRIIA-hFc surface
Procedure: as §1

[10] = biological target: T1, Activin A (homodimer of two inhibin βA …); assay: SPR blocking: 5 nM Activin A + 0.94 nM binder over hActRIIA-hFc surface
Procedure: as §1

[11] = biological target: T1, Activin A (homodimer of two inhibin βA …); assay: SPR blocking: 5 nM Activin A + 60 nM binder over hActRIIB-hFc (Control 4) surface
Procedure: as §1

[12] = biological target: T1, Activin A (homodimer of two inhibin βA …); assay: SPR blocking: 5 nM Activin A + 7.50 nM binder over hActRIIA-hFc surface
Procedure: as §1

[13] = biological target: T1, Activin A (homodimer of two inhibin βA …); assay: SPR blocking: 5 nM Activin A + 1.88 nM binder over hActRIIB-hFc (Control 4) surface
Procedure: as §1

[14] = biological target: T1, Activin A (homodimer of two inhibin βA …); assay: SPR blocking: 5 nM Activin A + 3.75 nM binder over hActRIIA-hFc surface
Procedure: as §1

[15] = biological target: T1, Activin A (homodimer of two inhibin βA …); assay: SPR blocking: 5 nM Activin A + 30 nM binder over hActRIIB-hFc (Control 4) surface
Procedure: as §1

[16] = biological target: T1, Activin A (homodimer of two inhibin βA …); assay: SPR blocking: 5 nM Activin A + 7.50 nM binder over hActRIIB-hFc (Control 4) surface
[17] = biological target: T1, Activin A (homodimer of two inhibin βA …); assay: SPR blocking: 5 nM Activin A + 1.88 nM binder over hActRIIA-hFc surface
Procedure: as §1

[18] = biological target: T1, Activin A (homodimer of two inhibin βA …); assay: SPR blocking: 5 nM Activin A + 3.75 nM binder over Follistatin-288 surface
Procedure: as §1

[19] = biological target: T1, Activin A (homodimer of two inhibin βA …); assay: SPR blocking: 5 nM Activin A + 30 nM binder over hActRIIA-hFc surface
Procedure: as §1

[20] = biological target: T1, Activin A (homodimer of two inhibin βA …); assay: SPR blocking: 5 nM Activin A + 0.94 nM binder over Follistatin-288 surface
Procedure: as §1

[21] = biological target: T1, Activin A (homodimer of two inhibin βA …); assay: SPR blocking: 5 nM Activin A + 15 nM binder over Follistatin-288 surface
Procedure: as §1

[22] = biological target: T1, Activin A (homodimer of two inhibin βA …); assay: SPR blocking: 5 nM Activin A + 15 nM binder over hActRIIA-hFc surface
Procedure: as §1

[23] = biological target: T1, Activin A (homodimer of two inhibin βA …); assay: SPR blocking: 5 nM Activin A + 30 nM binder over Follistatin-288 surface
Procedure: as §1

[24] = biological target: T1, Activin A (homodimer of two inhibin βA …); assay: SPR blocking: 5 nM Activin A + 0.00 nM binder over hActRIIB-hFc (Control 4) surface
Procedure: as §1

% bound RU w/no inhibitor [1]: 3%
% bound RU w/no inhibitor [2]: 80%
% bound RU w/no inhibitor [3]: 1%
% bound RU w/no inhibitor [4]: 2%
% bound RU w/no inhibitor [5]: 1%
% bound RU w/no inhibitor [6]: 20%
% bound RU w/no inhibitor [7]: 100%
% bound RU w/no inhibitor [8]: 59%
% bound RU w/no inhibitor [9]: 100%
% bound RU w/no inhibitor [10]: 81%
% bound RU w/no inhibitor [11]: 3%
% bound RU w/no inhibitor [12]: 3%
% bound RU w/no inhibitor [13]: 62%
% bound RU w/no inhibitor [14]: 19%
% bound RU w/no inhibitor [15]: 3%
% bound RU w/no inhibitor [16]: 4%
% bound RU w/no inhibitor [17]: 62%
% bound RU w/no inhibitor [18]: 15%
% bound RU w/no inhibitor [19]: 2%
% bound RU w/no inhibitor [20]: 79%
% bound RU w/no inhibitor [21]: 1%
% bound RU w/no inhibitor [22]: 2%
% bound RU w/no inhibitor [23]: 1%
% bound RU w/no inhibitor [24]: 100%
B1: H4H10430P (antibody, human IgG4, V domains shown)
VH: EVQLVESGGGLVQPGRSLRLSCKASGFAFDDFAMHWVRQAPGKGLEWVSGIVWNSGDIGYADSVKGRFTISRDNAKNSLYLQLNSLRTEDTALYFCVKDMVRGLMGFNYYGMDVWGQGTTVTVSS
VL: EIVLTQSPATLSLSPGERATLSCRASQTISTYLVWYRQRPGQAPSLLIYDASNRATDIPARFSGSGSGTDFTLTISSLEPEDFAVYYCQQRSNWPITFGQGTRLEIK
notes: H4H prefix means human IgG4 Fc

% bound RU w/no inhibitor [1]: 4%
% bound RU w/no inhibitor [2]: 79%
% bound RU w/no inhibitor [3]: 4%
% bound RU w/no inhibitor [4]: 3%
% bound RU w/no inhibitor [5]: 0%
% bound RU w/no inhibitor [6]: 19%
% bound RU w/no inhibitor [7]: 100%
% bound RU w/no inhibitor [8]: 57%
% bound RU w/no inhibitor [9]: 100%
% bound RU w/no inhibitor [10]: 75%
% bound RU w/no inhibitor [11]: 4%
% bound RU w/no inhibitor [12]: 6%
% bound RU w/no inhibitor [13]: 58%
% bound RU w/no inhibitor [14]: 17%
% bound RU w/no inhibitor [15]: 4%
% bound RU w/no inhibitor [16]: 7%
% bound RU w/no inhibitor [17]: 52%
% bound RU w/no inhibitor [18]: 17%
% bound RU w/no inhibitor [19]: 3%
% bound RU w/no inhibitor [20]: 76%
% bound RU w/no inhibitor [21]: 2%
% bound RU w/no inhibitor [22]: 4%
% bound RU w/no inhibitor [23]: 1%
% bound RU w/no inhibitor [24]: 100%
B2: H4H10440P2 (antibody, human IgG4, V domains shown)
VH: EVQLVESGGGVVQPGGSLRLSCAASTFTFDDFAMHWVRQAPGKGLEWVSLITGDGGSTYYADPVKGRFTISRDNSKNSLYLQMNSLRTEDTALYYCVKDWWIAARPDYYYYGMDVWGQGTTVTVSS
VL: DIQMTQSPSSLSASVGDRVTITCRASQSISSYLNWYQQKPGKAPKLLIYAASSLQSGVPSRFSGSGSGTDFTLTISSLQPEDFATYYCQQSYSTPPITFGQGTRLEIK
notes: as for B1

% bound RU w/no inhibitor [1]: 115%
% bound RU w/no inhibitor [2]: 110%
% bound RU w/no inhibitor [3]: 3%
% bound RU w/no inhibitor [4]: 118%
% bound RU w/no inhibitor [5]: 3%
% bound RU w/no inhibitor [6]: 88%
% bound RU w/no inhibitor [7]: 100%
% bound RU w/no inhibitor [8]: 46%
% bound RU w/no inhibitor [9]: 100%
% bound RU w/no inhibitor [10]: 114%
% bound RU w/no inhibitor [11]: 124%
% bound RU w/no inhibitor [12]: 105%
% bound RU w/no inhibitor [13]: 106%
% bound RU w/no inhibitor [14]: 95%
% bound RU w/no inhibitor [15]: 122%
% bound RU w/no inhibitor [16]: 103%
% bound RU w/no inhibitor [17]: 114%
% bound RU w/no inhibitor [18]: 6%
% bound RU w/no inhibitor [19]: 117%
% bound RU w/no inhibitor [20]: 73%
% bound RU w/no inhibitor [21]: 3%
% bound RU w/no inhibitor [22]: 113%
% bound RU w/no inhibitor [23]: 3%
% bound RU w/no inhibitor [24]: 100%
B3: H4H10442P2 (antibody, human IgG4, V domains shown)
VH: QVQLQESGPGLVKPSETLSITCTVSGGSFSSHFWTWIRQPPGKGLEWIGYLHYSGGTSYNPSLKSRVIISVDTSKNQFSLKLNSVTAADTAVYYCARARSGITFGGLIVPGSFDIWGQGTMVTVSS
VL: not shown
notes: as for B1

% bound RU w/no inhibitor [1]: 115%
% bound RU w/no inhibitor [2]: 107%
% bound RU w/no inhibitor [3]: 3%
% bound RU w/no inhibitor [4]: 118%
% bound RU w/no inhibitor [5]: 3%
% bound RU w/no inhibitor [6]: 76%
% bound RU w/no inhibitor [7]: 100%
% bound RU w/no inhibitor [8]: 54%
% bound RU w/no inhibitor [9]: 100%
% bound RU w/no inhibitor [10]: 111%
% bound RU w/no inhibitor [11]: 129%
% bound RU w/no inhibitor [12]: 94%
% bound RU w/no inhibitor [13]: 105%
% bound RU w/no inhibitor [14]: 85%
% bound RU w/no inhibitor [15]: 89%
% bound RU w/no inhibitor [16]: 95%
% bound RU w/no inhibitor [17]: 115%
% bound RU w/no inhibitor [18]: 7%
% bound RU w/no inhibitor [19]: 98%
% bound RU w/no inhibitor [20]: 77%
% bound RU w/no inhibitor [21]: 3%
% bound RU w/no inhibitor [22]: 108%
% bound RU w/no inhibitor [23]: 3%
% bound RU w/no inhibitor [24]: 100%
B4: H4H10446P2 (antibody, human IgG4, V domains shown)
VH: QVQLQESGPGLVKPSETLSLTCTVSGGSFSSHFWSWIRQPPGKGLEWIGYILYTGGTSFNPSLKSRVSMSVGTSKNQFSLKLSSVTAADTAVYYCARARSGITFTGIIVPGSFDIWGQGTMVTVSS
VL: not shown
notes: as for B1
